# Measured values: patent publication US20050059089A1 (priority 2003, published 2005)
# “Also recorded” adds a separate entry of the source. Where two headings read alike, the source gives them in different places.
# Legend:
# [1] = target: T1, GPCR135 (Homo sapiens, UniProt Q9NSD7); experiment: Radioligand competition binding with 125I-relaxin3, COS-7 cell membranes; design: expressed in transfected cells; host or cells: COS-7 (membranes); conditions: COS-7 membranes, 100 pM radioligand
# T1 sequence (Q9NSD7 1-469): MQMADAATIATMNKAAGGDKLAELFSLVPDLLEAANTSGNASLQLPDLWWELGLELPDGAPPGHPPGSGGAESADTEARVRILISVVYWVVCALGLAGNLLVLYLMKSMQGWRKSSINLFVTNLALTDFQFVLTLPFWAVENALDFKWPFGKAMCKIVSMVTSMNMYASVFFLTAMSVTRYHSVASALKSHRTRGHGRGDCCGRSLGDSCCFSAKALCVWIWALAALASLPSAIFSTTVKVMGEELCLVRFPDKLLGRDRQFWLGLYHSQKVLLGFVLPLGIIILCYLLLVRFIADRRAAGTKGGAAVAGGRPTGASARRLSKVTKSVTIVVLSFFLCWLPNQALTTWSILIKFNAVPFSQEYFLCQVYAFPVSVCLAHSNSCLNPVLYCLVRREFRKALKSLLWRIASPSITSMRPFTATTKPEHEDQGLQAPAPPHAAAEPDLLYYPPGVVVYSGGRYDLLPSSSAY
# Description: Cell membranes from COS-7 cells transiently expressing GPCR142 were incubated with ^125I-relaxin3 either in the presence or absence of various concentrations of different competitors in 96-well plates at a final volume of 200 μL in binding buffer: 50 mM Tris-HCl (pH 7.4), 2 mM EDTA plus 0.5% BSA. The binding mixtures were incubated at room temperature for 1 h and then were filtered through 96-well GFC plates (Packard) and washed with ice-cold washing buffer: 50 mM Tris-HCl, pH 7.4. Fifty microliters of Microscint-40 were added to each well and the plates were counted in a Topcounter NTX (Packard). The radioligand binding results were analyzed using GraphPad PRISM software.
# This binding assay was also performed using GPCR135.
# To characterize INSL5 as the possible ligand for GPCR135 and GPCR142, cell membranes from COS-7 cells transiently expressing human GPCR135 or GPCR142 were used in the radioligand binding assays using [^125I)-relaxin3 as the radioligand as described by Liu et al. (2003a, 2003b). […] The binding assays were performed at room temperature for an incubation time of one hour. The binding mixtures were then filtered through GFC filters pre-saturated with 0.3 polyethylenimine (Sigma) and washed with cold binding buffer. The bound radioligand was counted in a top counter (TopCount/NTX, Packard) with Microscint-40. The results were analyzed by Prism 3.0 software.
# [2] = target: T1, GPCR135; experiment: GTPγS binding assay, GPCR135 expression membranes; assay type: biochemical; design: expressed in transfected cells; host or cells: CHO membranes (GTPγS); HEK293 with Gα16 or Gqi5 (Ca2+)
# Description: The GPCR142 expression vector described above was transfected into CHO cells using Lipofectamine (Invitrogen) according to the manufacturer's instructions. Two days after transfection, the cells were harvested and the cell membranes were prepared by homogenizing the cells in cold 50 mM Tris-HCl, 5 mM EDTA, pH 7.5 followed by centrifugation at 4° C. 1000 g for 10 min. The supernatant was centrifuged at 4° C. 20,000 g for 30 min and the pellet was re-suspended in GTPγS binding buffer: 50 mM Tris-HCl, pH 7.4, 10 mM MgCl2, 1 mM EDTA, pH 8.0, and 100 mM NaCl using a polytron tissue homogenizer. Protease inhibitors were added to the buffer at concentrations of 1 mM PMSF, 10 μg/ml of pepstatin A, 10 μg/ml of leupeptin. Cell membranes and different concentrations of ligands were added to 96-well plates and incubated at room temperature for 20 min. ^35S-GTPγS (NEN) was then added to each well at a final concentration of […] in a final volume of 200 μL. The reactions were allowed to proceed at room temperature for 1 h, and then the mixtures were filtered though a 96-well GFC filter plate (Packard) and washed with cold washing buffer: 50 mM Tris-HCl, pH 7.4, 10 mM MgCl2. Fifty microliters of Microscint-40 (Packard) was added to each well and the plate was counted on a top counter (TopCount NTX, Packard).
# The same assay was performed as described above, except using GPCR135 in place of GPCR142.
# [3] = target: GPCR142 (Homo sapiens, UniProt Q8TDU9, L329S); experiment: Ca2+ mobilization assay (FLIPR), HEK293 cells co-expressing GPCR142 and Gα16; assay type: cell-based; design: The complete coding region of human GPCR142 was PCR-amplified from human genomic DNA; expressed in transfected cells; HEK293 co-transfected with Gα16 (Ca2+)
# Description: Human embryonic kidney (HEK) 293 cells were transfected with GPCR135,.GPCR142 or co-transfected with Gqi5 (Conklin et al. (1993), Nature 363, 274-280) or Gα16 (Amatruda et al. (1991), Proc. Natl. Acad. Sci. U.S.A. 88, 5587-5591) expressing plasmids using LipofectAmine. Two days after transfection, cells were detached with PBS plus 10 mM EDTA. The detached cells were washed with DMEM-F12 medium (without phenol red, Invitrogen) and seeded in black poly-D lysine coated 96-well plates (BD Biosciences, San Jose, Calif.) at a cell density of 50,000 cell/well.
# [4] = target: T1, GPCR135; experiment: Inhibition of forskolin-stimulated cAMP (CRE-β-galactosidase) in SK-N-MC cells; assay type: cell-based; design: expressed in transfected cells; conditions: SK-N-MC cells stably expressing GPCR135
# Description: SK-N-MC cells stably expressing GPCR142 were established by transfection of GPCR142 expressing plasmids into SK-N-MC cells harboring a β-galactosidase gene under control of multiple cAMP responsive elements. The stable transfectants were selected by culturing the transfected cells under G418 selection (400 mg/L). The receptor expressing cells were seeded in 96-well plates at a cell density of 30,000 cells/well. After 24 h, cells were stimulated with forskolin or different peptides. Cells were cultured for an additional 6 h and the intracellular β-gal activity, which represents the intracellular cAMP accumulation, was measured as described by Liu et al. (2000), Mol. Pharmacol., 59, 420-426.
# The same experiment was performed using GPCR135.
# [5] = target: T1, GPCR135; experiment: Ca2+ mobilization assay, HEK293 cells co-expressing GPCR135 and Gα16; assay type: cell-based; design: expressed in transfected cells; host or cells: HEK293 with Gα16 or Gqi5 (Ca2+)
# Chain of GPCR142 (Q8TDU9 whole entry L329S): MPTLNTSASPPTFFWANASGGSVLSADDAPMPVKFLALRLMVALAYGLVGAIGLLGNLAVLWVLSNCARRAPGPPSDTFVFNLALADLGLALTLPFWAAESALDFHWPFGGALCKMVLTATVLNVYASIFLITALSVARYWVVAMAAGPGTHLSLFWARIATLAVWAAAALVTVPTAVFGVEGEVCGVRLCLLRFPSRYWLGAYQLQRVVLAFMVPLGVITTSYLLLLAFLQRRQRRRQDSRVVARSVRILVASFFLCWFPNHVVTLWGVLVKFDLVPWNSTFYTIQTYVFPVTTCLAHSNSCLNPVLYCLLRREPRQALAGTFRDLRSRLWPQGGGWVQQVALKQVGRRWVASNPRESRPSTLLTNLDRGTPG
substance,measurement,setting,value
"relaxin3: Human relaxin3 (SEQ ID NO: 6), produced recombinantly; mature peptide of A- and B-chain linked by disulfide bridges",displacement of 125I-relaxin3 binding to GPCR135,[1],specifically displaced
same,stimulation of GTPγS binding,[2],stimulated GTPγS binding
same,stimulation of Ca2+ mobilization,[3],stimulated Ca2+ mobilization; also recorded: stimulated a strong Ca^2+ signal; also recorded: stimulates Ca^2+ signaling
same,inhibition of forskolin induced β-galactosidase expression,[4],dose-dependently inhibits
same,stimulation of Ca2+ mobilization,[5],stimulated Ca2+ mobilization
same,stimulation of Ca2+ mobilization,[5]; listed as Relaxin3,stimulated Ca^2+ mobilization
